# T1: FGF-4 (Homo sapiens, UniProt P08620)
# T1 sequence (P08620 31-206): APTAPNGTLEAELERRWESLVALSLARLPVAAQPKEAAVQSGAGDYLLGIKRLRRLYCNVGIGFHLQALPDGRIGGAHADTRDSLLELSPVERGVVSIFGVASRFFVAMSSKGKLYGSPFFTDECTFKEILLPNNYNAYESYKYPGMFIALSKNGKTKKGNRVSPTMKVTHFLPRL
# T2: factor XIIIa (Homo sapiens, UniProt P00488)
# T2 sequence (P00488 39-732 limits assumed): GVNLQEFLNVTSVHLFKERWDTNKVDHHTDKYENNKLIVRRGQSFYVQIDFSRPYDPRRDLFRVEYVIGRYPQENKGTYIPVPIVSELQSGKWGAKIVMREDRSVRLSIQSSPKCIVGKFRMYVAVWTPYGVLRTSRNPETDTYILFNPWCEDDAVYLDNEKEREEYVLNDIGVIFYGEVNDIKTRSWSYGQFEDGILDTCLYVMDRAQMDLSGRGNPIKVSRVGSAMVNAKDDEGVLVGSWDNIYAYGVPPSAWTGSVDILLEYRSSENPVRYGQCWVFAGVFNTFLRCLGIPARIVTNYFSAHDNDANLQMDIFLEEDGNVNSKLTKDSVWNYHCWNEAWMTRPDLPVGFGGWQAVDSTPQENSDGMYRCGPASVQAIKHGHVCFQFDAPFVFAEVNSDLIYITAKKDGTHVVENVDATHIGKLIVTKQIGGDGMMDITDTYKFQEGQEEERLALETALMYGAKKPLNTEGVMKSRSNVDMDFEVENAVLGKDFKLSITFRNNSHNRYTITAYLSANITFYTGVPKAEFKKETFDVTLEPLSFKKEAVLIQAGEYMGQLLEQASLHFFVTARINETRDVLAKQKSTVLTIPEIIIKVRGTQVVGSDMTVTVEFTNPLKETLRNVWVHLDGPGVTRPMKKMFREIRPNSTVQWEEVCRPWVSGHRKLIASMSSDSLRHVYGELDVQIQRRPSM
# B1: TNC III1-5: recombinant tenascin C fibronectin type III repeats 1-5 (E622 to A1074) with transglutaminase substrate NQEQVSPL and 6×His tag, SEQ ID NO:1 (protein)
# chain: METDTLLLWVLLLWVPGSTGDAAQPAIEGRNQEQVSPLGGSEVSPPKDLVVTEVTEETVNLAWDNEMRVTEYLVVYTPTHEGGLEMQFRVPGDQTSTIIQELEPGVEYFIRVFAILENKKSIPVSARVATYLPAPEGLKFKSIKETSVEVEWDPLDIAFETWEIIFRNMNKEDEGEITKSLRRPETSYRQTGLAPGQEYEISLHIVKNNTRGPGLKRVTTTRLDAPSQIEVKDVTDTTALITWFKPLAEIDGIELTYGIKDVPGDRTTIDLTEDENQYSIGNLKPDTEYEVSLISRRGDMSSNPAKETFTTGLDAPRNLRRVSQTDNSITLEWRNGKAAIDSYRIKYAPISGGDHAEVDVPKSQQATTKTTLTGLRPGTEYGIGVSAVKEDKESNPATINAATELDTPKDLQVSETAETSLTLLWKTPLAKFDRYRLNYSLPTGQWVGVQLPRNTTSYVLRGLEPGQEYNVLLTAEKGRHKSKPARVKASTEQAGGGSHHHHHH
# modifications: Tenascin III signal sequence with polyhistidine tag
# B2: Fg β15-66: heparin-binding domain of human fibrinogen β chain aa15-66 (SEQ ID NO:8); construct with TG substrate and His tag, SEQ ID NO:2 (protein)
# chain: GSNQEQVSPLGHRPLDKKREEAPSLRPAPPPISGGGYRARPAKAAATQKKVERKAPDAGGCGHHHHHH
# modifications: GS linker, transglutaminase substrate, the Fg beta15-66, with a Histidine tag
# Experiments:
# [1] = molecular target: T1, FGF-4; assay: ELISA binding to coated FGF-4; conditions: 50 nM cytokine coated
# Experimental: (§1) ELISA plates were coated with cytokines or BSA and further incubated with TNC III1-5 to analyze binding of TNC III1-5 to a wide variety of cytokines. […] Results are depicted in FIG. 3. Method: 50 nM of cytokine was coated for (1 hr, 37° C.). After blocking with 2% BSA (1 hr, RT). 100 nM TNC III1-5 was applied in PBST (0.05% tween, 0.1% bovine serum albumin (BSA)) (1 hr, RT). TNC III1-5 was detected with horseradish peroxidase (HRP)-anti-HIS in PBST (1 hr, RT) and developed with 3,3′,5,5′-tetramethylbenzidine (TMB), a soluble colorimetric HRP […]. Addition of sulfuric acid stop solution changes the color to yellow, enabling accurate measurement of the intensity at 450 nm using a spectrophotometer or plate reader. […] Heparin (4 μM) was added to TNC III1-5 to test the effect of blocking the heparin binding site of TNC III1-5, which has been defined as domain TNC III5 (Weber, Zimmermann, et al., 1995).
# [2] = test system: SMC; assay: Smooth muscle cell proliferation on modified TG-PEG gels with PDGF-BB; type: cell-based
# Experimental: Method: Three different gels were fabricated, unmodified PEG, and PEG gels modified with TNC III1-5 or FN III9*-10,TNC III1-5 (5 μM). Unbound fragment was washed from the gels. Sequentially, gels were incubated for 1 hour at 37° C. with 100 μL DMEM without PDGF-BB or with PDGF-BB (1 ng per gel). For one set of gels, the media containing PDGF-BB was removed and gels were washed for 1 hour at RT. Cells were added to each gel and a proliferation assay with Alamar Blue was performed at 72 hours.
# [3] = molecular target: HGF (Homo sapiens, UniProt P14210); assay: ELISA binding to coated HGF; conditions: 50 nM cytokine coated
# Chain of HGF (P14210 32-728, species assumed): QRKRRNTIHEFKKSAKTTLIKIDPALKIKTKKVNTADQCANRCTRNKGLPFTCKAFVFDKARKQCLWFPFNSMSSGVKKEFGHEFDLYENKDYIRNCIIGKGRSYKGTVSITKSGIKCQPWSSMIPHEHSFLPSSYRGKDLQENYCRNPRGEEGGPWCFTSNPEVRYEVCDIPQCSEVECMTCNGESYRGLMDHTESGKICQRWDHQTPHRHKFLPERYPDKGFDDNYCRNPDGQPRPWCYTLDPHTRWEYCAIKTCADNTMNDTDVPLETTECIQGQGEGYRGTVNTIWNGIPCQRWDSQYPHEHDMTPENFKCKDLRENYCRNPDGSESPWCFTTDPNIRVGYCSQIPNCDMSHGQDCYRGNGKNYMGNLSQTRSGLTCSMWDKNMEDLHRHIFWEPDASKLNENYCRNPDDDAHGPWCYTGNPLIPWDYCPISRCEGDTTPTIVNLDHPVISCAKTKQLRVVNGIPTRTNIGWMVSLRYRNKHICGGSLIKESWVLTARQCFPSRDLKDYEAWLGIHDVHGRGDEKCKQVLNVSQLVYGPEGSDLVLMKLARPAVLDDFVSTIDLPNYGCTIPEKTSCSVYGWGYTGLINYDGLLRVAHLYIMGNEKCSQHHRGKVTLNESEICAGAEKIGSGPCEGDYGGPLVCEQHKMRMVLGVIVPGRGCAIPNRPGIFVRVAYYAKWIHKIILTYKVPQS
# Experimental: as §1
# [4] = molecular target: T2, factor XIIIa; assay: Transglutaminase substrate activity (TAMRA, fibrinogen, PEG-lysine with factor XIIIa); type: biochemical; conditions: with and without factor XIIIa
# Experimental: The activity of the transglutaminase substrate (TG: NQEQVSPL) (SEQ ID NO:10) of the engineered protein TG-TNC III1-5 was confirmed. FIG. 12 depicts results. Methods: A) The TG activity of TG-TNC III1-5 was tested by reaction with a fluorescent TAMRA molecule, containing lysines, with and without the presence of factor XIIIa, the TAMRA molecule, or TG-TNC III1-5. […] B) The TG activity of TG-TNC III1-5 was tested by reaction with fibrinogen, with and without the presence of factor XIIIa, fibrinogen, or TG-TNC III1-5. Fibrinogen or no protein was coated on an ELISA plate (1 hr, 37° C.), blocked with 2% BSA (1 hr, RT), reacted with or without TG-TNC III1-5 or factor XIIIa C) The TG activity of TG-TNC III1-5 was tested by reaction with PEG-lysines. A robotic spotter was used to bind TG-TNC III1-5 inside 450 μm spots (Gobaa, Hoehnel, et al., 2011), and an immuno-fluorescent stain was used to visualize the location and distribution of TG-TNC III1-5 onto the PEG. D) TG-TNC III1-5 and TG-FN III9*-10,TNC III1-5 (5 μM) were incorporated into a 2% TG-PEG gel. After 2 washed with PBS, 98% and 96% respectively of the fragments was bound into gels, which were sequentially stained with HRP-conjugated anti-HIS, and developed with TMB to read an absorbance at 450 nm.
# [5] = molecular target: PDGF-AA (Homo sapiens, UniProt P04085); assay: ELISA binding to coated PDGF-AA; conditions: 50 nM cytokine coated
# Experimental: as §1
# [6] = test system: skin wounds; assay: Full-thickness back-skin wound healing in diabetic mice; type: in vivo; conditions: TG-PEG gels functionalized with TG-Fg β15-66 delivering FGF-2 and PlGF-2; 10 days
# Experimental: Method: Full-thickness back-skin wounds were treated with combined FGF-2 and PlGF-2. Seven groups were tested: treatment (no ECM); fibrin only; fibrin containing cytokines; PEG only, PEG containing cytokines; PEG functionalized with TG-Fg β15-66, and PEG functionalized with TG-Fg β15-66 containing cytokines. After 10 days, wound closure and granulation tissue area were evaluated by histology. FIG. 20 details the results.
Molecule,"binding to FGF-4 (ELISA, signal above BSA background) [1]","SMC proliferation on TG-PEG gels (2%) ([2]; in the presence of PDGF-BB, 5 μM fragment, 72 hours)","SMC proliferation on modified gels vs unmodified gels ([2]; unbound PDGF-BB removed, p<0.05)","binding to HGF (ELISA, signal above BSA background) [3]",activity of the transglutaminase substrate (TG: NQEQVSPL) [4],"binding to PDGF-AA (ELISA, signal above BSA background) [5]",skin-wound healing [6]
B1,positive binding,enhanced SMC proliferation,significantly increased proliferation,positive binding,confirmed,positive binding,
B2,,,,,,,enhanced skin-wound healing
